Residue numbers refer to the chain shown, from its start. Numbers in names are those of the source. No end group written: not given here. TMR = tetramethyl rhodamine dye
T1: Rb^P A488V (human, UniProt P06400 380-788, A488V)
T1 construct: also called variant 14
T1 sequence (looked up): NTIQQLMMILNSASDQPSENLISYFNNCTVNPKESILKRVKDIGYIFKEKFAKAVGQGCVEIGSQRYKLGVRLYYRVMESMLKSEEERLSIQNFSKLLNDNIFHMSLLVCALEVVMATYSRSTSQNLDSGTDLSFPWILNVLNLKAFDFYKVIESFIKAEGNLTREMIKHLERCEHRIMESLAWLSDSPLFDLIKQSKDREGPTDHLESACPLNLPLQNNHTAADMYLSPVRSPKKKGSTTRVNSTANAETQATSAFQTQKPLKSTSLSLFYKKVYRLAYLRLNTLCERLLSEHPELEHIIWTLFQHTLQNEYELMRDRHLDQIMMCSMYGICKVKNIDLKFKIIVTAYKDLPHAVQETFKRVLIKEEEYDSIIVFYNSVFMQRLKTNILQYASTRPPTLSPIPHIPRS

T2: Rb^P Q504E (human, UniProt P06400 380-788, Q504E)
T2 construct: also called variant 19
T2 sequence (looked up): T1 sequence (looked up) with V109A, Q125E

T3: Rb^P A525G (human, UniProt P06400 380-788, A525G)
T3 construct: also called variant 20
T3 sequence (looked up): T1 sequence (looked up) with V109A, A146G

T4: Rb^P R741C (human, UniProt P06400 380-788, R741C)
T4 construct: also called variant 68
T4 sequence (looked up): T1 sequence (looked up) with V109A, R362C

T5: Rb^P R741S (human, UniProt P06400 380-788, R741S)
T5 construct: also called variant 70
T5 sequence (looked up): T1 sequence (looked up) with V109A, R362S

B1: TMR-E2F1^TD, peptide of the E2F1 transactivation domain (peptide)
peptide: {TMR}-GEGIRDLFDCDFGDLTPLD
notes: also called E2F^TD; source: synthetic peptide, bought: GenScript
B2: TMR-E7^LxCxE, LxCxE peptide of the E7 oncoprotein from HPV (peptide)
peptide: DLYCYEQLN
modifications: also: TMR label, position not given here
notes: source: synthetic peptide, bought: GenScript

Legend:
Experiment in all cases: fluorescence polarisation; 37 °C, after the 25 °C reading ramped over 7 min to 37 °C and 2 min incubation; unlabeled Rb^P against 1.5 nM TMR-E2F1^TD or 7.5 nM TMR-E7^LxCxE; 25 mM Tris pH 8.0, 200 mM NaCl, 1 mM DTT, 0.1% Tween-20; apparent Kd
Details in all cases: both partners purified
[1] = target: T1, Rb^P A488V
[2] = target: T2, Rb^P Q504E
[3] = target: T3, Rb^P A525G
[4] = target: T4, Rb^P R741C
[5] = target: T5, Rb^P R741S

| Binder | Kd [1] [nM] | Kd [2] [nM] | Kd [3] [nM] | Kd [4] [nM] | Kd [5] [nM] |
| --- | --- | --- | --- | --- | --- |
| B1 | 78 | 33 | 65 | 64 | 84 |
| B2 | 19 | 11 | 52 | 23 | 46 |
